Source: patent US20210324359A1, “USE OF GRAM-NEGATIVE LYSIN-ANTIMICROBIAL PEPTIDE (AMP) POLYPEPTIDE CONSTRUCTS IN TREATING ENDOCARDITIS” (priority 2020, published 2021)

B1: GN76: lysin obtained from Acinetobacter phage vB_AbaP_CEB1 (SEQ ID NO: 203) (protein)
chain: MILTKDGFGIIRNELFGGKLDQTQVDAINFIVEKATESGLSYPEAAYLLATIYHETGLPSGYRTMQPIKEAGSDNYLRSKKYYPYIGYGYVQLTWKENYGRIGKLIGIDLIKNPEKALEPLIAIQIAIKGMLNGWFTGVGFRRKRPVSKYNKQQYIAARNIINGKDKAELIAKYAIIFERALRSL
modifications: Acinetobacter phage vB_AbaP_CEB1
B2: GN431: lysin obtained from Dickeya phage phiD3 (SEQ ID NO: 64) (protein)
chain: MAILKLGNRGTEVKALQDSLNKIGFTLVADGIFGKATENAVKTVQAGAGLVIDGIVGPKTSYAIRNAGEAHQDHLTEADLIEAANQLGVDLASVKAVNQVESRGTGFTKSGKIKTLFERHIMYKKLMAKFGQARANAMGQMYPTLVSPVAGGYTGGDAELDRLHAAINIDEDCAYESASYGLFQIMGFNCQVCGYANAKEMFNDFLTGERAHLMAFVKFIKADAKLWQALKDKNWAEFARRYNGPAYTKNQYDTKLAAAYNSFN
modifications: Dickeya phage phiD3
B3: GN83: AMP OBPgpLYS fused to the N-terminus of lysin GN4 (SEQ ID NO: 216) (protein)
chain: MKNSEKNASIIMSIQRTLASLSLYGGRIDGLFGEKCRGAIILMLNKVYPNFSTNKLPSNTYEAESVFTFLQTALAGVGLYTITIDGKWGGTSQGAIDALVKSYRQITEAERAGSTLPLGLATVMSTSQRGIDLIKSFEGLRLSAYQDSVGVWTIGYGTTRGVTRYMTITVEQAERMLSNDIQRFEPELDRLAKVPLNQNQWDALMSFVYNLGAANLASSTLLKLLNKGDYQGAADQFPRWVNAGGKRLDGLVKRRAAERALFLEPLS
modifications: OBG_GN4_2 (Lyz+C-term)
B4: GN357: lysin-AMP construct: TAGGTAGG linker and RR12Whydro C-terminal to GN316 lysin (SEQ ID NO: 38) (protein)
chain: MAILKIGSKGLEVKNLQTSLNKIGFNLVADGIFGKATDNAVRAVQAGAGLVVDGIAGPKTMYAIRNAGESHQDHLTEADLIDAARELSVDLASIKAVNQVESRGTGFTKSGKIKTLFERHIMYKKLNAKFGQAKANALAQLYPTLVNAKAGGYTGGDAELERLHGAIAIDKDCAYESASYGLFQIMGFNCVICGYDNAEEMFNDFLTGERAQLMAFVKFIKADANLWKALKDKNWAEFARRYNGPAYAQNQYDTKLAAAYKSFSTAGGTAGGRRLIRLWLRLLR
B5: GN93: lysin-AMP construct: cationic peptide (SEQ ID NO: 120) and linker N-terminal to GN14 lysin (SEQ ID NO: 62) (protein)
chain: MKFFKFFKFFKAGAGAGAGAGAGAGAGASNNELPWVAEARKYIGLREDTSKTSHNPKLLAMLDRMGEFSNESRAWWHDDETPWCGLFVGYCLGVAGRYVVREWYRARAWEAPQLTKLDRPAYGALVTFTRSGGGHVGFIVGKDARGNLMVLGGNQSNAVSIAPFAVSRVTGYFWPSFWRNKTAVKSVPFEERYSLPLLKSNGELSTNEA
B6: GN122: lysin obtained from Pseudomonas putida strain PA14H7 (SEQ ID NO: 218) (protein, listed as Pseudomonas putida)
chain: MSIFSFVKEAGEKLIDLLTPGNANASEQLKEHVSKVGLGNPNIQTTVEGSKVTVTGEVASQEEKEKILLALGNIAGVESVDDQITVTGPLVAAARFVVVKKGDTLSAISLAVYGNANQYNKIFEANKPLLSHPDKIYPGQTLRIPE
B7: GN80: dispersin B-like molecule (SEQ ID NO: 214) (protein, listed as Staphylococcus sciuri)
chain: MENIQKGITVDIARKSYSLETLKTIVKHIHDHNGQYLQLHFSDDENYAIESEYFDRKSFSNPYYLTKTEVKSLIEYSNDLNVMVIPDMDFPSHSKAFLSLIKQNDKSLYQEIISDYSDNTLDFFSNRKAVDVTNRQIDEITELFKQPQFAEQQRIVLGGDEVAGGGAHQNSFIEYMNQIGDYAFQQGYEPQMWNDMVTHEGVKSLNNHYSILYWKQNEDNKSNLTVEDFDKYYFDVYNYNYYSLYFLPSKQFSQDDINEQAEYIGWAYAYNKFYYNKNPYSEVNSQNVKGSALSFWGEHATDMTQEELINQEVPLIKVYFNLKK
B8: GN218: lysin-AMP construct: IGEM linker and RI12 antimicrobial peptide C-terminal to GN37 lysin (SEQ ID NO: 10) (protein)
chain: MTYTLSKRSLDNLKGVHPDLVAVVHRAIQLTPVDFAVIEGLRSVSRQKELVAAGASKTMNSRHLTGHAVDLAAYVNGIRWDWPLYDAIAVAVKAAAKELGVAIVWGGDWTTFKDGPHFELDRSKYGGGSGGGGSGGGSRLKKIGKVLKWI
B9: GN217: GN37 lysin with amino acid substitution R79H (SEQ ID NO: 8) (protein)
chain: MTYTLSKRSLDNLKGVHPDLVAVVHRAIQLTPVDFAVIEGLRSVSRQKELVAAGASKTMNSRHLTGHAVDLAAYVNGIHWDWPLYDAIAVAVKAAAKELGVAIVWGGDWTTFKDGPHFELDRSKYR
B10: GN178: lysin-AMP construct: Esculentin fragment and IGEM linker N-terminal to GN146 lysin (SEQ ID NO: 6) (protein)
chain: MPPIFSKLAGKKIKNLLISGLKGGSGSGSGSGSPRTSQRGIDLIKSFEGLRLSAYQDSVGVWTIGYGTTRGVTRYMTITVEQAERMLSNDIQRFEPELDRLAKVPLNQNQWDALMSFVYNLGAANLASSTLLDLLNKGDYQGAADQFPHWVNAGGKRLDGLVKRRAAERALFLEPLS

tested on: P. aeruginosa strain WC-453; assay: Time-kill assay in HEPES or CAA with 25% human serum (Tables 7, 8); assay type: cell-based, Pseudomonas aeruginosa; conditions: 10 μg/mL; enumerated lysins in CAA/HuS; general statement for HEPES and CAA/HuS
Protocol: Exponential phase bacteria were then pelleted and resuspended in 1/5 culture volume of 25 mM HEPES, pH 7.4 before a final adjustment to an optical density corresponding to a McFarland value of 0.5. […] All treatments were incubated at 37° C. with aeration. At time points before the addition of lysin (or buffer control) and at 1 hour and 3 hours intervals thereafter, culture samples were removed for quantitative plating on CAA agar plates.

Molecule	bactericidal activity (CFU decrease of 3-Log10, 3 hours after the addition of lysin)
B1	bactericidal activity
B2	bactericidal activity
B3	bactericidal activity
B4	bactericidal activity
B5	bactericidal activity

same assay, conditions: 25 mM HEPES pH 7.4; lysin 10 μg/ml; 1 hr; WC-453

Molecule	HEPES (Log10 CFU/mL), 1 hr [Log10 CFU/mL]
B1	<3.7
B3	<3.7
B6	7.7
B7	7.7
B5	6.0

same assay, conditions: 25 mM HEPES pH 7.4; lysin 10 μg/ml; 3 hr; WC-453

Molecule	HEPES (Log10 CFU/mL), 3 hr [Log10 CFU/mL]
B1	<3.7
B3	<3.7
B6	5.4
B7	6.7
B5	<3.7

same assay, conditions: CAA + 25% human serum; lysin 10 μg/ml; 1 hr; WC-453

Molecule	CAA/HuS (Log10 CFU/mL), 1 hr [Log10 CFU/mL]
B1	5.7
B2	5.8
B3	5.7
B4	5.0
B6	6.7
B7	6.7
B5	6.6

same assay, conditions: CAA + 25% human serum; lysin 10 μg/ml; 3 hr; WC-453

Molecule	CAA/HuS (Log10 CFU/mL), 3 hr [Log10 CFU/mL]
B1	<3.7
B2	<3.7
B3	<3.7
B4	<3.7
B6	6.7
B7	7.0
B5	<3.7

tested on: P. aeruginosa; assay: MIC, modified CLSI broth microdilution in CAA medium without or with […] human serum (Table 4); assay type: cell-based, Pseudomonas aeruginosa; conditions: CAA medium, no human serum; as to CAA/HuS MIC: CAA supplemented with 2.5% human serum
Description: 2015. […] Clinical and Laboratory Standards Institute, Wayne, Pa.

Molecule	CAA MIC [mg/mL]
B8	8
B9	4
B2	8
B10	8
B4	16
B5	128

same assay, conditions: CAA supplemented with […] human serum

Molecule	CAA/HuS MIC [mg/mL]
B8	1
B9	0.125
B2	0.0625
B10	4
B4	0.25
B5	8

same assay, conditions: CAA with and without human serum; parent GN316 or GN37

Molecule	effect of the structural modification on activity (as assessed by MIC) versus the parent lysin
B8	very strong activity in the presence of human serum
B9	improves its potency over GN37 both in the absence and presence of human serum

tested on: carbepenam-resistant clinical isolate WC-453; assay: MIC in CAA without or with 25% human serum (Table 5); assay type: cell-based, Pseudomonas aeruginosa; design: CAA MIC: unit not given here; conditions: not given
Protocol: MIC values were determined using a modification of the standard broth microdilution reference method defined by the Clinical and Laboratory Standards Institute (CLSI), CLSI. […] Methods for Dilution Antimicrobial Susceptibility Tests for Bacteria That Grow Aerobically; Approved Standard-10th Edition. Clinical and Laboratory Standards Institute, Wayne, Pa.

Molecule	activity in CAA supplemented with human serum (25%)
B8	active
B1	active
B3	repressed
B10	active
B6	active
B5	active

same assay, conditions: CAA

Molecule	CAA MIC
B8	8
B1	64
B3	>128
B10	8
B6	2
B5	128

same assay, conditions: CAA supplemented with 25% human serum

Molecule	CAA/HuS MIC
B8	1
B1	8
B3	>128
B10	1
B6	2
B5	8

tested on: biofilms formed by P. aeruginosa strain ATCC 17646; assay: not given; conditions: strain ATCC 17646 biofilm
Protocol: Biofilms are then washed and treated with e.g., a 2-fold dilution series of the lysin in TSBg at e.g., 37° C. for 24 hours. After treatment, wells are washed, air-dried at e.g., 37° C. and stained with e.g., 0.05% crystal violet for 10 minutes.

Molecule	MBEC [µg/mL]
B1	0.125
B9	0.5
B2	1
B3	1
B4	0.5
B6	1
B7	0.125
B5	0.125

tested on: Pseudomonas aeruginosa strain CFS-1292 (meropenem resistant); assay: not given; conditions: strain CFS-1292; no added cations
Protocol: The activity of selected GN lysins and constructs in the presence of divalent cations was evaluated, and the impact of divalent cations at physiological concentrations was examined in the MIC assay format.

Molecule	MIC in 25% CAA [µg/mL]
B2	2
B4	4
